The target in assay [1] is T1, GST-SH3-Yes fusion protein (Gallus gallus (Chicken), UniProt P09324, 35S-methionine labeled when used as probe). As to the kind of experiment: competition of labeled GST-YES-SH3 binding to blotted TrpE-YAP65 by the scrambled peptide. Here is the method: (§1) FIG. 5. Binding between YAP65 and Yes in vitro. (A) TrpE-YAP65 fusion protein (2,4,5,6,7) or TrpE alone (1,3) were probed on Western blots with ^35S-methionine labeled GST-Yes-SH3 alone (2) or with radioactive GST-Yes-SH3 supplemented with 10 µM of cold GST-Yes-SH3 (4); Lane 5 is as in lane 2 but the incubation was in the presence of SPLAP peptide (200 µM); lanes 6 and 7, the binding was competed with 50 µM and 200 µM of the PLAP peptide, respectively. The arrow indicates partially purified TrpE-YAP65 fusion protein. Lower migrating protein bands represent products of proteolytic degradation. Even if an increased concentration of protease inhibitors and careful purification protocols were used, we always observed limited degradation of the TrpE-YAP65 protein. Equal amounts (8 µg) of TrpE-fusion protein or TrpE protein were loaded into each lane of the SDS-polyacrylamide gel and transferred to nitrocellulose. (B) Differential binding of ^35S-labeled TrpE-YAP65 fusion protein to various fusion proteins containing SH3 domains. Before the Western transfer, we had loaded equal amounts (1 µg) of purified proteins into each lane of the SDS gel. An SDS-polyacrylamide gel was run in parallel and stained with Coomassie Blue to confirm equal concentrations of the purified proteins. […]

For assay [2], the target named is GST alone (Schistosoma japonicum (Blood fluke), UniProt P08515 = GST, 32P-labelled when used as probe in Example 5). As to the kind of experiment: Western ligand blot on TrpE-YAP65.
The target of assay [3] is T1, GST-SH3-Yes fusion protein. The experiment in a line: membrane binding assay, radioactively labeled TrpE-YAP65 on blotted GST fusions. The procedure: as §1, with “nitrocellulose.” for “nitrocellulose. (B) Differential binding of ^35S-labeled TrpE-YAP65 fusion protein to various fusion proteins containing SH3 domains. Before the Western transfer, we had loaded equal amounts (1 µg) of purified proteins into each lane of the SDS gel. An SDS-polyacrylamide gel was run in parallel and stained with Coomassie Blue to confirm equal concentrations of the purified proteins.”
To perform reciprocal binding and to estimate the relative specificity of YAP65 binding to other proteins that contain SH3 domains, we probed the purified GST fusion proteins of Nck, Crk, Src, Abl and GAP with radioactively labeled Trp-E-YAP65 protein. The same amount of protein was analyzed in a membrane binding assay; TRPE-YAP-65 bound the strongest to Nck and Yes followed by Crk, and Src. […]

B1: SPLAP peptide (peptide)
peptide: VQPAQLSIPGPVSPQPKGQSPA
Take B1: the binding result in assay [1] is “no binding (tested: 200 µM)”.

B2: TrpE-YAP65 fusion protein (other)
chain: MQTQKPTLELLTCEGAYRDNPTALFHQLCGDRPATLLLESADIDSKDDLKSLLLVDSALRITALGDTVTIQALSGNGEALLALLDNALPAGVESEQSPNCRVLRFPPVSPLLDEDARLCSLSVFDAFRLLQNLLNVPKEEREAMFFGGLFSYDLVAGFEDLPQLSAENNCPDFCFYLAETLMVIDHQKKSTRIQASLFAPNEEEKQRLTARLNELRQQLTEAAPPLPVVSVPHMRCECNQSDEEFGGVVRLLQKAIRAGEIFQVVPSRRFSLPCPSPLAAYYVLKKSNPSPYMFFMQDNDFTLFGASPESSLKYDATSRQIEIPASLQLGAVSPGTLTPSGVVTGPGAPSSQHLRQSSFEIPDDVPLPPGWEMAKTPSGQRYFLNHIDQTTTWQDPRKAMLSQMNVTAPTSPPVQQNLMNSASAMNQRISQSAPVKQPPPLAPQSPQGGVMGGSSSNQQQQMRLQQLQMEKERLRLKHQELLRQELALRSQLPTMEQDGGSQNPVSSPGMSQELRTMTTNSSDPFLNSGTYHSRDESTDSGLSMSSYSVPRTPDDFLNSVDEMDTGDSISQSNIPSHQNRFPDYLEAIPGTNVDLGTLEGDGMNIEGEELMPSLQEALSSDILNDMES
modifications: 35S-labeled when used as probe
Turning to B2, the binding result in assay [2] is recorded as “no binding”; in assay [3], “binds”.

Source of the values: patent publication US6034212, “SH3 kinase domain associated protein, a signalling domain therein, nucleic acids encoding the protein and the domain, and diagnostic and therapeutic uses thereof” (The Rockefeller University, dated 2000).
